Laboratory results taken from the Human Domainome abundance scans (Beltran et al. 2025).
± gives the uncertainty stated by the source.

B1: FERM and PDZ domain-containing protein 4, residues 75 to 154; numbered along this chain, Q14CM0 (parent)
chain: APRKVEMRRDPVLGFGFVAGSEKPVVVRSVTPGGPSEGKLIPGDQIVMINDEPVSAAPRERVIDLVRSCKESILLTVIQP

Variants of: B1
Test: abundance fitness (aPCA) (normalised: wild type 0, dead -1); higher = more abundant; growth selection in yeast, the domain comes from the species named
Details: Homo sapiens

Point of comparison: I41F, abundance fitness 0.043 ± 0.036. Against it:
- T31Q — lower, -0.029 ± 0.028
- T31H — within error, -0.016 ± 0.029
- T31Y — lower, -0.117 ± 0.031
- T31R — lower, -0.034 ± 0.023
- T31F — lower, -0.149 ± 0.033
- T31I — lower, -0.175 ± 0.03
- T31D — lower, -0.058 ± 0.036
- T31K — within error, -0.012 ± 0.029
- T31L — lower, -0.168 ± 0.023
- T31N — lower, -0.055 ± 0.029
- T31S — within error, -0.001 ± 0.023
- T31G — lower, -0.222 ± 0.029
- T31P — lower, -0.59 ± 0.036
- T31M — lower, -0.067 ± 0.032
- T31C — lower, -0.108 ± 0.033
- T31V — lower, -0.058 ± 0.025
- T31A — lower, -0.045 ± 0.025
- T31E — within error, -0.013 ± 0.032
- T31W — lower, -0.196 ± 0.032
- P35R — lower, -0.486 ± 0.025
- P35N — lower, -0.213 ± 0.053
- P35T — lower, -0.543 ± 0.039
- P35I — lower, -0.622 ± 0.088
- P35Y — lower, -0.708 ± 0.091
- P35E — lower, -0.35 ± 0.037
- P35K — lower, -0.59 ± 0.047
- P35V — lower, -0.331 ± 0.028
- P35M — lower, -0.355 ± 0.038
- P35S — lower, -0.394 ± 0.033
- P35Q — lower, -0.33 ± 0.038
- P35G — lower, -0.661 ± 0.032
- P35D — lower, -0.737 ± 0.07
- P35W — lower, -1.08 ± 0.074
- P35L — lower, -0.857 ± 0.044
- P35A — lower, -0.202 ± 0.028
- P35C — lower, -0.435 ± 0.05
- E37P — lower, -0.985 ± 0.059
- E37R — lower, -0.211 ± 0.022
- E37Y — lower, -0.044 ± 0.041
- E37G — lower, -0.173 ± 0.021
- E37D — within error, -0.028 ± 0.035
- E37Q — lower, -0.034 ± 0.031
- E37C — lower, -0.046 ± 0.033
- E37F — lower, -0.103 ± 0.038
- E37N — lower, -0.106 ± 0.045
- E37T — lower, -0.126 ± 0.029
- E37V — lower, -0.057 ± 0.023
- E37M — lower, -0.122 ± 0.032
- E37L — lower, -0.235 ± 0.026
- E37H — lower, -0.09 ± 0.045
- E37K — lower, -0.176 ± 0.033
- E37I — lower, -0.145 ± 0.046
- Q45H — within error, -0.009 ± 0.029
- Q45L — lower, -0.136 ± 0.021
- Q45S — lower, -0.102 ± 0.022
- Q45P — lower, -0.938 ± 0.051
- Q45V — lower, -0.123 ± 0.024
- Q45E — lower, -0.037 ± 0.031
- Q45W — lower, -0.2 ± 0.03
- Q45D — lower, -0.589 ± 0.041
- Q45N — lower, -0.126 ± 0.027
- Q45R — lower, -0.026 ± 0.022
- Q45A — lower, -0.084 ± 0.026
- Q45F — lower, -0.247 ± 0.03
- Q45K — lower, -0.057 ± 0.028
- Q45T — lower, -0.105 ± 0.023
- Q45C — lower, -0.101 ± 0.03
- Q45I — lower, -0.105 ± 0.027
- V47E — lower, -0.083 ± 0.059
- V47W — lower, -0.128 ± 0.046
- V47D — lower, -0.084 ± 0.048
- V47T — within error, -0.01 ± 0.032
- V47S — lower, -0.098 ± 0.03
- V47A — lower, -0.112 ± 0.036
- V47G — lower, -0.426 ± 0.041
- V47Y — within error, -0.019 ± 0.04
- V47Q — lower, -0.045 ± 0.04
- V47H — lower, -0.06 ± 0.043
- V47M — within error, -0.03 ± 0.049
- V47K — lower, -0.114 ± 0.042
- V47F — lower, -0.118 ± 0.042
- V47L — within error, 0.012 ± 0.027
- V47N — lower, -0.175 ± 0.042
- V47C — within error, -0.032 ± 0.04
- V47R — lower, -0.192 ± 0.033
- V47I — within error, 0.018 ± 0.032
- I41P — lower, -0.925 ± 0.055
- I41V — within error, -0.009 ± 0.024
- I41E — within error, 0.015 ± 0.025
- I41H — within error, 0.028 ± 0.036
- I41Q — within error, -0.003 ± 0.028
- I41G — lower, -0.084 ± 0.022
- I41L — within error, 0.024 ± 0.023
- I41M — within error, 0.03 ± 0.027
- I41D — lower, -0.063 ± 0.036
- I41W — within error, -0.004 ± 0.025
- I41C — within error, -0.014 ± 0.031
- I41S — within error, 0.033 ± 0.024
- I41K — within error, -0.008 ± 0.028
- I41Y — within error, -0.011 ± 0.035
- I41N — within error, 0.032 ± 0.039
- I41T — within error, 0.013 ± 0.028
- I41A — within error, 0.005 ± 0.023
- G38M — lower, -0.185 ± 0.034
- G38S — lower, -0.124 ± 0.023
- G38W — lower, -0.274 ± 0.026
- G38E — lower, -0.155 ± 0.026
- G38P — lower, -0.54 ± 0.037
- G38C — lower, -0.186 ± 0.03
- G38L — lower, -0.21 ± 0.024
- G38F — lower, -0.096 ± 0.041
- G38Y — lower, -0.142 ± 0.038
- G38D — lower, -0.061 ± 0.031
- G38Q — lower, -0.099 ± 0.032
- G38I — lower, -0.651 ± 0.064
- G38T — lower, -0.137 ± 0.03
- G38H — lower, -0.045 ± 0.041
- G38V — lower, -0.526 ± 0.026
- G38N — lower, -0.078 ± 0.047
- G38K — lower, -0.105 ± 0.036
- M48T — within error, -0.015 ± 0.025
- M48P — lower, -0.917 ± 0.05
- M48W — lower, -0.152 ± 0.032
- M48C — within error, -0.003 ± 0.028
- M48I — lower, -0.154 ± 0.03
- M48F — within error, -0.01 ± 0.027
- M48A — within error, 0.044 ± 0.026
- M48Y — lower, -0.083 ± 0.031
- M48R — lower, -0.046 ± 0.023
- M48D — lower, -0.095 ± 0.039
- M48S — within error, 0.008 ± 0.022
- M48H — lower, -0.121 ± 0.031
- M48L — lower, -0.072 ± 0.022
- M48G — lower, -0.025 ± 0.026
- M48K — lower, -0.046 ± 0.03
- M48N — lower, -0.095 ± 0.032
- M48E — within error, -0.028 ± 0.037
- M48V — lower, -0.127 ± 0.027
- P42Q — lower, -0.043 ± 0.029
- P42A — lower, -0.036 ± 0.024
- P42L — lower, -0.104 ± 0.024
- P42I — lower, -0.082 ± 0.038
- P42H — lower, -0.155 ± 0.045
- P42D — lower, -0.064 ± 0.035
- P42K — lower, -0.108 ± 0.03
- P42R — lower, -0.124 ± 0.021
- P42W — lower, -0.477 ± 0.03
- P42G — lower, -0.237 ± 0.022
- P42T — lower, -0.058 ± 0.028
- P42V — lower, -0.048 ± 0.022
- P42M — lower, -0.154 ± 0.031
- P42S — lower, -0.093 ± 0.026
- P42Y — lower, -0.276 ± 0.041
- P42N — lower, -0.069 ± 0.043
- P42E — lower, -0.024 ± 0.025
- K39H — within error, -0.028 ± 0.038
- K39M — lower, -0.045 ± 0.028
- K39Q — lower, -0.032 ± 0.031
- K39T — lower, -0.201 ± 0.029
- K39C — lower, -0.036 ± 0.03
- K39D — lower, -0.546 ± 0.041
- K39S — lower, -0.119 ± 0.024
- K39L — within error, 0.005 ± 0.022
- K39A — lower, -0.079 ± 0.023
- K39I — within error, 0.005 ± 0.036
- K39G — lower, -0.264 ± 0.021
